The source of these data is patent publication US20240101702A1 (PRECISION BIOLOGICS, published 2024).

The target in this test is T1, CEACAM8 (human, UniProt P31997 35-320, limits assumed).
T1 sequence (looked up): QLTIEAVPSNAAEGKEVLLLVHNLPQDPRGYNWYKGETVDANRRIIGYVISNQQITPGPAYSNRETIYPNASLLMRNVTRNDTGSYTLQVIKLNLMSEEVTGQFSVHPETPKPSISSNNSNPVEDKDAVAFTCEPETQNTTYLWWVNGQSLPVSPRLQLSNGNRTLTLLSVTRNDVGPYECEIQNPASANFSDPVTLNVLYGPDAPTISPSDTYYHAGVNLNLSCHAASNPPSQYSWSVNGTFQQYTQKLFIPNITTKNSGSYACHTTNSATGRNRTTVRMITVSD
As to the kind of experiment: in vitro assays using human tumor cell lines (method not detailed).

B1: NEO-201 humanized IgG1 monoclonal antibody (antibody, V domains shown)
VH: QVQLVQSGAEVKKPGASVKVSCKASGYTFTDYAMHWVRQAPGQRLEWMGLISTYSGDTKYNQNFQGRVTMTVDKSASTAYMELSSLRSEDTAVYYCARGDYSGSRYWFAYWGQGTLVTVSS
VL: DIQMTQSPSSLSASVGDRVTITCQASENIYGALNWYQRKPGKSPKLLIYGASNLATGMPSRFSGSGSGTDYTFTISSLQPEDIATYYCQQVLSSPYTFGGGTKLEIKR
notes: also called h16C3; H16C3-Abb*
As for B1, the binding result is given as “no binding”.
